In the assay the target is T1, D2R(L123W:R132L), short isoform, fused to Rluc8 (human, UniProt P14416-2 1-414, L123W | R132L).
T1 sequence: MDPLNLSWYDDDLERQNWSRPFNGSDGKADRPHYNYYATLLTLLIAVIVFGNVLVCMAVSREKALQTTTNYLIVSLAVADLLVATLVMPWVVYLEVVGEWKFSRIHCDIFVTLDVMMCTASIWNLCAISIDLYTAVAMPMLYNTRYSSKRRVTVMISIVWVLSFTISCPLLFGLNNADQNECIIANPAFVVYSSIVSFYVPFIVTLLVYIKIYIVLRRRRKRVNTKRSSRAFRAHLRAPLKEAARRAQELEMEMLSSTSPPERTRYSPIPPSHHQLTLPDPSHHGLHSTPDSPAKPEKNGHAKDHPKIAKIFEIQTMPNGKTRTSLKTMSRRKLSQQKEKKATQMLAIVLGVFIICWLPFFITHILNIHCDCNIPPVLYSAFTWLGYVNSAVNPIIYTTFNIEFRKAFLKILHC
As to the kind of experiment: FRET or BRET. A general note: BRET reads energy transfer from a luciferase to a nearby fluorophore.

B1: bovine arrestin-2 fused to mVenus at its N-terminus (natural protein)
chain: MGDKGTRVFKKASPNGKLTVYLGKRDFVDHIDLVEPVDGVVLVDPEYLKERRVYVTLTCAFRYGREDLDVLGLTFRKDLFVANVQSFPPAPEDKKPLTRLQERLIKKLGEHAYPFTFEIPPNLPCSVTLQPGPEDTGKACGVDYEVKAFCAENLEEKIHKRNSVRLVIRKVQYAPERPGPQPTAETTRQFLMSDKPLHLEASLDKEIYYHGEPISVNVHVTNNTNKTVKKIKISVRQYADICLFNTAQYKCPVAMEEADDTVAPSSTFCKVYTLTPFLANNREKRGLALDGKLKHEDTNLASSTLLREGANREILGIIVSYKVKVKLVVSRGGLLGDLASSDVAVELPFTLMHPKPKEEPPHREVPEHETPVDTNLIELDTNDDDIVFEDFARQRLKGMKDDKEEEEDGTGSPRLNDR
Take B1: the “maximal DA-induced recruitment, % of D2R-WT” value is 132 % of D2R-WT.

For the origin of these results see article PMC6378141 (Molecular psychiatry, 2018).
